The source of these data is patent US20050107285A1.

Experiment [1] has as its target FcγRIIIb receptor on human neutrophils (human) (UniProt O75015). Put plainly: flow cytometry of TNFα-primed human neutrophils with saturating FITC-Leu11b, quantified with Quantum Simply Cellular microbeads. (In flow cytometry, cells or beads pass a laser one at a time.)
For experiment [2] the target is unchanged. Put plainly: cell-based or functional assay.

UniProt O75015, sequence (O75015 17-200): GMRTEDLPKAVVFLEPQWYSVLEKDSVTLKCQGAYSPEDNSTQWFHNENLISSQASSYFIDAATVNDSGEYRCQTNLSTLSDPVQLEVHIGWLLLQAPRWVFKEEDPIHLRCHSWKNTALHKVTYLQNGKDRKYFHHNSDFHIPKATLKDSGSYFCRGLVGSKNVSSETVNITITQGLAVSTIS

Consider “FITC-labelled Leu11b (anti-CD16) (antibody)”, for which the antibody-binding sites per cell (antibody-binding sites per cell) in experiment [1] is 240000. In turn, “insoluble IgG-containing immune complexes (human serum albumin and rabbit anti-HSA antibodies) (from UniProt P02768 25-609)” returned a respiratory burst (luminol chemiluminescence) of primed neutrophils after PI-PLC depletion of surface FcγRIIIb in experiment [2] of 70 % decrease.
